From publication PMC4206950 (Chemical science (Royal Society of Chemistry : 2010), 2014)

B1: SABP2 (Nicotiana tabacum) (protein)
chain: MKEGKHFVLVHGACHGGWSWYKLKPLLEAAGHKVTALDLAASGTDLRKIEELRTLYDYTLPLMELMESLSADEKVILVGHSLGGMNLGLAMEKYPQKIYAAVFLAAFMPDSVHNSSFVLEQYNERTPAENWLDTQFLPYGSPEEPLTSMFFGPKFLAHKLYQLCSPEDLALASSLVRPSSLFMEDLSKAKYFTDERFGSVKRVYIVCTEDKGIPEEFQRWQIDNIGVTEAIEIKGADHMAMLCEPQKLCASLLEIAHKYN
B2: PFE (Pseudomonas fluorescens) (protein)
chain: STFVAKDGTQIYFKDWGSGKPVLFSHGWLLDADMWEYQMEYLSSRGYRTIAFDRRGFGRSDQPWTGNDYDTFADDIAQLIEHLDLKEVTLVGFSMGGGDVARYIARHGSARVAGLVLLGAVTPLFGQKPDYPQGVPLDVFARFKTELLKDRAQFISDFNAPFYGINKGQVVSQGVQTQTLQIALLASLKATVDCVTAFAETDFRPDMAKIDVPTLVIHGDGDQIVPFETTGKVAAELIKGAELKVYKDAPHGFAVTHAQQLNEDLLAFLKR

Columns and labels:
Assay in all cases: purified protein
[1] = tested on: CC(=O)Oc1ccc([N+](=O)[O-])cc1; format: biochemical, Hevea brasiliensis; details: BES pH 7.2, 25 °C, about 7 vol% acetonitrile
CC(=O)Oc1ccccc1 = details: […] BES pH 7.2, 5% MeCN
CC(C)(O)C#N = format: biochemical, Hevea brasiliensis; details: pH 5 citrate buffer
N#CC(O)c1ccccc1 = format: biochemical, Hevea brasiliensis; details: pH 5.0 citrate buffer, 25 °C, racemic substrate
purified protein [2] = substrate: CC(=O)Oc1ccc([N+](=O)[O-])cc1; format: biochemical, Nicotiana tabacum; details: BES pH 7.2, 25 °C, about 7 vol% acetonitrile
purified protein [3] = substrate: CC(=O)Oc1ccc([N+](=O)[O-])cc1; format: biochemical, Pseudomonas fluorescens; details: BES pH 7.2, 25 °C, about 7 vol% acetonitrile

Molecule | Km [1] [µM] | kcat [1] [s⁻¹] | kcat/Km [1] [M⁻¹ s⁻¹] | also measured
HbHNL (Hevea brasiliensis; E79H) | 190 ± 40 | 0.00133 ± 6.67e-05 | 6.83 | –
HbHNL (Hevea brasiliensis; E79H/K236G/T11G) | 160 ± 20 | 0.027 ± 0.000833 | 168 | Km (CC(=O)Oc1ccccc1): 2800 ± 400 µM; kcat (CC(=O)Oc1ccccc1): 0.02 ± 0.00167 s⁻¹; kcat/Km (CC(=O)Oc1ccccc1): 6.83 M⁻¹ s⁻¹; Km (CC(C)(O)C#N): 6500 ± 1000 µM; kcat (CC(C)(O)C#N): 0.0967 ± 0.00833 s⁻¹; kcat/Km (CC(C)(O)C#N): 14.8 M⁻¹ s⁻¹; Km (N#CC(O)c1ccccc1): 3200 ± 900 µM; kcat (N#CC(O)c1ccccc1): 0.135 ± 0.0167 s⁻¹; kcat/Km (N#CC(O)c1ccccc1): 41.7 M⁻¹ s⁻¹
HbHNL (Hevea brasiliensis; E79H/T11G) | 140 ± 20 | 0.00967 ± 0.000333 | 69.3 | –
HbHNL (Hevea brasiliensis; K236G/T11G) | 150 ± 20 | 0.00217 ± 6.67e-05 | 14.3 | –
HbHNL (Hevea brasiliensis; K236M) | 580 ± 50 | 0.0123 ± 0.000333 | 21.2 | –
HbHNL (Hevea brasiliensis; T11G) | 200 ± 40 | 0.0015 ± 8.33e-05 | 7.5 | –
B1 | – | – | – | Km (purified protein [2]): 1400 ± 100 µM
B2 | – | – | – | Km (purified protein [3]): 450 µM
